Among the data in patent US20240067706A1 (published 2024) are Kd values, retold here.

Experiment in all cases: BLI
On the technique in general: In BLI a coated tip is dipped into the sample, and binding shifts an interference pattern.

In assay [1] the target is SARS-CoV-2 S protein (full-length S protein, soluble, purified in vitro) (SARS-CoV-2, UniProt P0DTC2 16-1213).
Assay [2] deals with T1, MERS-CoV S protein (soluble, purified in vitro) (MERS-CoV, UniProt K9N5Q8 18-1297).
T1 chain: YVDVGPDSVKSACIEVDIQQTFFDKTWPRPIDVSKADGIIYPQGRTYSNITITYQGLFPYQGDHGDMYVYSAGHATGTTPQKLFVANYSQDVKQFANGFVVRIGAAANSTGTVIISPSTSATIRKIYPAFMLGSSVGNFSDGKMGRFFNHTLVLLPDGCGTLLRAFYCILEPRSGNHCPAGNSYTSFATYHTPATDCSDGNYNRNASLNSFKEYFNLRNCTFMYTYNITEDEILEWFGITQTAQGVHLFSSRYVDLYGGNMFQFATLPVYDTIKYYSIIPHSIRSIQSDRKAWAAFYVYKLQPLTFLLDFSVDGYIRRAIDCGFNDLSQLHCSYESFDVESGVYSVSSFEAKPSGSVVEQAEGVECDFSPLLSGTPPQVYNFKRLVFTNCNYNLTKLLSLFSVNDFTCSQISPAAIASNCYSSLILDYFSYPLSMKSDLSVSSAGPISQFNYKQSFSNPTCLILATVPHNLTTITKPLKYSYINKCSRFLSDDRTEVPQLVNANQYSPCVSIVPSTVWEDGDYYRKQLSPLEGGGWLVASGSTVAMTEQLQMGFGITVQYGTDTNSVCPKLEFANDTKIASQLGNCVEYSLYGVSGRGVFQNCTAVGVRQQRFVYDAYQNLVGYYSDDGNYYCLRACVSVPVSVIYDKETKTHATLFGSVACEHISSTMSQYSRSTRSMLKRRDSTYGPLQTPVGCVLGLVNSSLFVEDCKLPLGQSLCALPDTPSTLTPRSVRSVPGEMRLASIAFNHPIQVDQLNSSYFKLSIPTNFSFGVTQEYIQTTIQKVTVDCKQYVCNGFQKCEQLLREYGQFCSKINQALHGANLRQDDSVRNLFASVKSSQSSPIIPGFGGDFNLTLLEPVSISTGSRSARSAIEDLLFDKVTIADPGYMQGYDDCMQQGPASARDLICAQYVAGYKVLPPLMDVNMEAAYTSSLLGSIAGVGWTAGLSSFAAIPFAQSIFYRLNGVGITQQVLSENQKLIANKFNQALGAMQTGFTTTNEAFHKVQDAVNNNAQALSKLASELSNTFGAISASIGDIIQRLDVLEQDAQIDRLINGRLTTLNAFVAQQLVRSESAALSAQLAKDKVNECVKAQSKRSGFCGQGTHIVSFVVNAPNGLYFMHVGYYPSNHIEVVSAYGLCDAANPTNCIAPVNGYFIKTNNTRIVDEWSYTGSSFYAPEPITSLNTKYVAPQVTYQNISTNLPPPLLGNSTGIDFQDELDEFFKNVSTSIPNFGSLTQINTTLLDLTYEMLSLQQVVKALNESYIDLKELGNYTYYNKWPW

The target of assay [3] is SARS-CoV S protein (soluble, purified in vitro) (SARS-CoV, UniProt P59594 14-1195).

B1: fully human monoclonal antibody 76E1 (antibody, V domains shown)
VH: EVQLVESGGGVVQPGGSLRLSCEASGFSFKDYGMHWIRQTPGKGLEWISRISGDTRGTSYVDSVKGRFIVSRDNSRNSLFLQMNSLRSEDTALYYCAALVIVAAGDDFDLWGQGTVVTVSS
VL: QSALTQPLSVSGSPGQSVTISCTGSSSDIGSYNFVSWYRQYPGKAPKVMIYEVNKRPSGVPVRFSGSKSGNTASLTVSGLQHEDEADYYCCSYGGRNNLIFGGGTKLTVL
As usually defined, the Kd is a measure of binding affinity in units of concentration. Turning to B1, the Kd was found to be 431 pM in assay [1], 1030 pM in assay [2] and 107 pM in assay [3].
